In US10052415B2, “Tropoelastin for promoting endothelial cell adhesion or migration” (University of Utah Research Foundation, priority 2005, dated 2018):
Entries after “also recorded” stand apart in the source; their conditions may differ.

Assays:
[1] = system: human aortic endothelial cells (HuAEC); assay: Cell adhesion assay on coated culture plates, HuAEC; format: cell-based
Experimental: (§1) Cells were plated on culture plates coated with either 0.1% BSA (as a control), 10 ug/ml fibronectin (FN), or 10 ug/ml recombinant tropoelastin, and assayed for adherence to the coated substrate.
(§2) 96-well plates were coated in duplicate overnight at 4° C. with 10 μg/ml collagen, fibronectin, tropoelastin, or 0.1% bovine serum albumin (BSA). Cells were harvested with 0.25% trypsin/1 mM EDTA, washed three times in adhesion buffer (0.5% BSA in basal medium), suspended at a working density of 5×10^5/ml in adhesion buffer, and then allowed to recover for 1 h at 37° C. (5% CO2). For integrin-blocking assays, 25 μg/ml anti-integrin antibodies (Chemicon, Temecula, Calif.) or control IgG (Jackson ImmunoResearch Laboratories, Inc, West Grove, Pa.) were added to the cell suspension during the recovery period. During the cell recovery, the coated 96-well plates were washed twice in dPBS and blocked for 1 h at 25° C. in 5.0% BSA (dPBS). The blocking solution was removed, and the wells were washed twice in dPBS. Recovered cells were added to the coated wells in a volume of 100 μl per well and placed at 37° C. for 30 minutes (5% CO2). Following this incubation, the assay plate was inverted and assay wells were washed twice with 100 μl dPBS to remove non-specifically adhered cells. The wells were then fixed in Zamboni fixative, stained with Gill 1 hematoxylin, and overlayed with 80% glycerol. The assay was imaged at 100× magnification, capturing 3 random fields/well on a Zeiss Axiovert 200 inverted microscope equipped with a Zeiss Axiocam digital camera. Readings represent the number of adherent cells/well (average six high powered 100× fields, three taken from each of two separate wells).

[2] = system: endothelial progenitor cells; assay: Adhesion assay on coated stainless steel disks, endothelial progenitor cells; format: cell-based, human
Experimental: We conducted experiments to assess whether tropoelastin promoted the adhesion of endothelial progenitor cells. Tropoelastin was covalently conjugated to a stainless steel disk approximately 6 mm in diameter. As a control, anti-CD34 antibody (known to promote endothelial cell adhesion) was covalently conjugated to similar stainless steel disks. Endothelial progenitor cells were cultured with these coated disks, and adhesion of the cells to the coated disks was assayed.
(§3) Adhesion assays on 6 mm stainless steel disks (Orbus Medical Technologies, Ft Lauderdale, Fla.) pre-coated with anti-CD34 antibody, tropoelastin, coating vehicle, or uncoated metal were performed in a similar fashion as described above, with the following modifications: 48-well plates were used to hold the disks during the assay period to facilitate manipulation of the disks and twice the volume of cell suspension was applied (200 μl/well). Exemplary amounts of total protein covalently attached to each disk were approximately 100 micrograms. Post-adhesion, the wells were washed twice in dPBS, using a swirling motion to dislodge non-specifically adhered cells. […]

[3] = system: endothelial progenitor cells; assay: Cell spreading on coated stainless steel disks (phalloidin/DAPI staining); format: cell-based, human; conditions: Triton X-100 permeabilized, phalloidin and DAPI staining
Description: We also examined the appearance of the adherent endothelial cells.
Cell spreading was examined by permeabilizing the endothelial cells that had adhered to the coated metal surfaces with Triton X-100 and staining with phalloidin to highlight the actin cytoskeleton and DAPI to mark cell nuclei. […] Thus, stainless steel surfaces coated with either tropoelastin or anti-CD34 antibody would likely endothelialize more rapidly than would similar bare metal surfaces when intravascularly placed.
as §3

CHO cells = assay: Cell adhesion assay on coated culture plates, CHO cells; format: cell-based; conditions: culture plates coated with 10 ug/ml protein; 0.1% BSA control
Experimental: as §1
as §2, with “Following this incubation, the assay plate was inverted and assay wells were washed twice with 100 μl dPBS to remove non-specifically adhered cells. The wells were then fixed in Zamboni fixative, stained with Gill 1 hematoxylin, and overlayed with 80% glycerol. The assay was imaged at 100× magnification, capturing 3 random fields/well on a Zeiss Axiovert 200 inverted microscope equipped with a Zeiss Axiocam digital camera.” left out

[4] = system: human embryonic kidney cells (HEK 293); assay: Cell adhesion assay on coated culture plates, HEK 293 cells; format: cell-based; conditions: culture plates coated with 10 ug/ml protein; 0.1% BSA control
Experimental: as §1
as §2, with “Following this incubation, the assay plate was inverted and assay wells were washed twice with 100 μl dPBS to remove non-specifically adhered cells. The wells were then fixed in Zamboni fixative, stained with Gill 1 hematoxylin, and overlayed with 80% glycerol. The assay was imaged at 100× magnification, capturing 3 random fields/well on a Zeiss Axiovert 200 inverted microscope equipped with a Zeiss Axiocam digital camera.” left out

B1: tropoelastin: recombinant human tropoelastin lacking native signal sequence, 10× His tag and Factor Xa site on N-terminus, 706 amino acid residues (SEQ ID NO: 4) (protein, listed as Homo sapiens)
chain: MGHHHHHHHHHHSSGGIEGRGGVPGAIPGGVPGGVFYPGAGLGALGGGALGPGGKPLKPVPGGLAGAGLGAGLGAFPAVTFPGALVPGGVADAAAAYKAAKAGAGLGGVPGVGGLGVSAGAVVPQPGAGVKPGKVPGVGLPGVYPGGVLPGARFPGVGVLPGVPTGAGVKPKAPGVGGAFAGIPGVGPFGGPQPGVPLGYPIKAPKLPGGYGLPYTTGKLPYGYGPGGVAGAAGKAGYPTGTGVGPQAAAAAAAKAAAKFGAGAAGVLPGVGGAGVPGVPGAIPGIGGIAGVGTPAAAAAAAAAAKAAKYGAAAGLVPGGPGFGPGVVGVPGAGVPGVGVPGAGIPVVPGAGIPGAAVPGVVSPEAAAKAAAKAAKYGARPGVGVGGIPTYGVGAGGFPGFGVGVGGIPGVAGVPGVGGVPGVGGVPGVGISPEAQAAAAAKAAKYGVGTPAAAAAKAAAKAAQFALLNLAGLVPGVGVAPGVGVAPGVGVAPGVGLAPGVGVAPGVGVAPGVGVAPGIGPGGVAAAAKSAAKVAAKAQLRAAAGLGAGIPGLGVGVGVPGLGVGAGVPGLGVGAGVPGFGAVPGALAAAKAAKYGAAVPGVLGGLGALGGVGIPGGVVGAGPAAAAAAAKAAAKAAQFGLVGAAGLGGLGVGGLGVPGVGGLGGIPPAAAAKAAKYGVAARPGFGLSPIFPGGACLGKACGRKRK
HuAEC adhesion, number of cells bound/well, relative to other coats ([1]; FIG. 2, coated wells): comparable to that observed with fibronectin or collagen | adhesion of HuAEC to the coated substrate ([1]; culture plates coated with 10 ug/ml protein, 0.1% BSA control): adhered to tropoelastin | adhesion of endothelial progenitor cells to coated stainless steel disks ([2]; FIG. 7, protein covalently conjugated to 6 mm disk): promoted adhesion of human endothelial cells to the metal device | cell adhesion compared to polysaccharide-coated control disks or to bare metal disks ([2]; coated metal disks): significant increase in cell adhesion | spreading of adherent cells across the surface of the coated disk [3]: promoted spreading of the adherent cells across the surface of the device; also recorded: well spread cytoplasm and an organized actin cytoskeleton | adhesion of CHO cells to the coated substrate (CHO cells): do not adhere to tropoelastin | adhesion of HEK 293 cells to the coated substrate [4]: do not adhere to tropoelastin
